# Test: yeast display, Sf9 membrane polyspecificity reagent, FACS + sequencing; frameworks hold sequencing errors
# Method in brief: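 Synthetic nanobody libraries on Saccharomyces cerevisiae BJ5465 were galactose-induced for 36–48 hours, stained 1 hour at 4 °C with 10% biotinylated, detergent-solubilized Sf9 membrane reagent and enriched on streptavidin microbeads. FACS then separated cells into low and high (top ~1%) gates by anti-HA (expression) and streptavidin (reagent binding) fluorescence. Genes were colony-PCR amplified, MiSeq 2 × 250 sequenced and CDR-length filtered. A clone's polyreactivity label is that of its gate of origin.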
row,Sequence,polyreactivity (PSR sort gate)
1,QVQLVESGGGLVQAGGSLRLSCAASGSTFRDNVMGWYRQAPGKEWEFVAAISSSVGSTYYADSVKGRFTISRDNAKNTVYLQMNSLKPEDTAVYYCAARLWPSYLSYGKTGDYWGQGTQVTVSS,high polyreactivity
2,QVQLGESGGGLVQAGGSLRLSCAASGRTFGPYAMGWYRQAPGKERELVAAIRYIDDSTFYADSVKGRFTISRDTAKNTVYLQMNSLKPEDTAVYYCAARPYPHSAYEGDYWGRGTQVTVSS,low polyreactivity
3,QVQLVESGGGLVQAGGSLRLICAASGGIFPTYDMVWYRQAPGKERELVAAIDRNGTSTTYSDSVKGRFTISRDNAKNTVYLQMNSLKPEDTEVYYCAAGYNDQTSAYDYWGHGTQVTVSS,low polyreactivity
4,QVQLVESARGLVQAGGSLRLSCAASGYTIRANAMGWYRQAPGKEREFVAAISRSGGSTYYADSVKGRFTISRDNAKNTVYLQMNCLKPEDTAVYYCNNLYPYYATHTTRGLDYWGQGTQVTVSS,high polyreactivity
5,QVQLVESGGGLVQAGGSLRLSCAASGSTFSDYAMGWYRQAPGKERELVAGITETGTTTYYADSVKGRFTISRDNAKNTVYLQMNSLKPEDTAVYYCAAYVVTYYYGTGYYSYDYWGQGTQVTVSS,low polyreactivity
6,QVQLVESGGGLVQAGGSLRLSCAASGSTFSPYAMGWYRQAPGKEMDFVAAITSSGGSTYYADSVKGRFTISRDNAKNTVYLQMNSLKPEDTALYYFAAEGYYTSTYDLFDYYYWGQGTQVTVSS,low polyreactivity
7,QVHLVESGGGLVQAGGSLRLSCAASGFTFVSYAMGWYRQAPGKERELVDDINQSGGSTYYADSLKGRFTISRDNAKNTVYLQMNSQKPEDTAVYYCARDGDLWYYKGYGTLFDYWGQGTQVTVSS,low polyreactivity
8,QVQLVESGGGLVQAGRSLRLSCAASGFTFVWYAMGWYRQAPGTERELVAAISRRGTRTYYADSVKGRFTISRDNAKNTVYLQMNSLKPEDTAVYYCAASNGYQAVTYDYWGQGTQVTVSS,high polyreactivity
9,QVQLVESGGGLVQAGGSLRLSCAASGFILYYYVMGWYRQAPGKERELVAAISTSGTSTYYADSVKGRFTISRDNAKNTVYLQMNSLKPEDTAVYYCAAEKDSSDIMEYWGQGTQVTVSS,high polyreactivity
10,QVQLVETGGGLFQAGGSLRISCAASGFIFTLYAMGWYRQAPGKERELVAAINSGGSTDYADSVKGRFTISRDNAKNTVYLQMNSLKPEDTAVYYCAAGNTYAGSDYWGQGTQVTVSS,low polyreactivity
11,QVQLVESGGGLVQAGGSLRVSCAASGSTLVFNAMGWYRQAPGKEREIVAAISKSGGSRYYADSVKGRFTISRDNAKNTVYLQMNSLKPEDTAVYYCAPDSGGPGYAMDYWGQGTQVTVSS,high polyreactivity
12,QVQLVESGGGLFQAGGSLRLSCAASGSTFYTNAMGWYRQAPGKERELVAAISWSGGSTYYADSVKGRFTIARDNAKNPVYLQLNSLKPEDTAVYYCDVSGTHFRYDYWGQGTQVTVSS,high polyreactivity
13,QVQLVESGGGLVQAGGSLRLSCAASVRIFGSNVMGWYRQAPGKERELVAAINWIGGSTYYADSVKGRFTISRDNAKNTVYLQMNSLKPEDTAVYYCARKRYNGRGYVGYYYWGQGTQVTVSS,high polyreactivity
14,QVQLVESGGGLVQAGGSLRLSCAASGSIFGPYAMGWYRQAPGKERELVAAITSGGSTYYADSVKGRFTISRDNAKNTVYLQMNSLKPEDTAVYYCNAESYFWDFYDYDHWGQGTQVTLSS,low polyreactivity
15,QDQLVESGGGLVQAGGSLRLSCAASGITFYRNAMGWYRQAPGKERELVAAISRRGGITRYADSVKGRFTISRDNAKNTVYLQMNSLKPEDTAVYYCAKAIGSTALRRATEDYWGQGTQVTVSS,high polyreactivity
16,QVQLVESAGGLVQAGGSLRLSCAASGYTFKLYAMGWSRQAPGKERELVAAIRQRGGTTYYADSVKGRVTISRDNAKNTVYLQMNSLKPEDTAVYYCAVRFYLPNANGGYYYWGQGTQVTVSS,high polyreactivity
17,HVQLVESGGGIVQAGGSLRLSCAASGLIVINYAMGRYRQARGKERELVATIRYCGGSTNYADSVKGRFTISRDNAKNTVYLQMNSLKPEDNAVYYCNAGYYPTGYDYWGQGTQVTVSS,low polyreactivity
18,QVQLVESGGGLVQAGGSLRLSCAASGFIFHRYAMGGYRQAPGKERELVASITRSGGSTYYADSVKGRFTISRDNAKNTVYLQMNSLKPEDTAVYYCAAQLPSYYKYPRHDYWGQGTQVTVSS,high polyreactivity
19,QVQHVESGGGLVQAGGSLRLSCAASGSIFSFNAMGWYRQAPGKERELVASISRNGGSTYYADSVKGRFTISRDNAKNTVYLQMNSLKPEDTAVYYCAVKVRNRRYGYWGQGTQVTVSS,high polyreactivity
20,QVQLVESGGGLVQAGGSLRLSSAASGFTFRRYAMGWYRQAPGKERELVAAISTSGGNTYYADSVKGRFTISRDNAKNTVYLQMNSLKPEDTAVYYCYARRKDNGHGTPFDDYWGQGTQVTVSS,high polyreactivity
21,QVQLVESGGGLVQAGGSLRLSCAASGRTFPSYTMGWYRQAPGKERELVAAISKSGGNTYYADSVKGRFTISRDNAKNTVYLQMNSLKPEDTAVYYCNADTYALGAAVIPGDEYWGQGTQVTVSS,low polyreactivity
22,QVQLVESGGGLVQAGGSLRLSCAASGSTFYRNAMGWYRQAPGKERELVAAISRGGSTYYADSVKGRFTISRDNAKNTVYLQMNSLKPEDTAVYYCNTDVNYAGYGWYYYWGQGTQVTVSS,high polyreactivity

row,Sequence,polyreactivity (PSR sort gate)
1,QVQLVESGGGLVQAGGRLPLSCAASGFIFGDYTMGWYRQAPGKERELVASISRRGGSTTYADSVKGRFTISRDNAMNTVYLQMNSLKPEDTAVYYCAARSRPSGSYNRHGPVDYWGQGTQVTVSS,high polyreactivity
2,QVQLVESGGGLVQAGGSLRLSCAASRRIFGFYAMGWYRQAPGKERELVADINWSATSTYYADSVKGRFTISRDTAKNTVYLQMNSLKPEDTAVYYCAADVSYRYYWGQGTQVTVSS,low polyreactivity
3,QVQLVESGGGLVQAGGSLRLSCAASGRTFVTYAMGWYRQAPGKERELVAAISASGGSTYYADSVKGRFTISRDNAKNTVYLQMNSLKPEDTAVYYCAKTYFLATPYGYWGQGTQVTVSS,low polyreactivity
4,QVQLVESGGGLVQAGGSLSLSCAASGITFYGYAMGWYRQAHGKERELVATIRRSTGSTYYADSVKGRFTISRDNAMNTVYLQMNSLKPEDTAVYYCATRVWFPITSYDYWGQGTKVTVSS,low polyreactivity
5,QVQLEESGGGLVQAGGSLRLSCAASGITFNSYAMGSYRQAPGKERELVAAISGSGSSTYYADSVKGRFTISRDNAKNTVYLQMTSLKPEDTAVYYCAATGYSSWTFYTHEYWGQGTQVTVSS,low polyreactivity
6,QVQLVESGGGLVQAGGSLRLSCAASGSIFRKYALGWYRQAPGKERELVAAIRSSGGSTYYADSVKGRFTISRDNAKNTVYLQMNSLKPEDTAVYYCAARYYRPSRYDYWGQGTQVTVSS,high polyreactivity
7,EVQLGESGGGLVQAGGSLRLSCAASGSTFNTNAMGWYRQAPGKERELVAAISWSSTRTYYADSVKGRFTISRDNAKNTVYLQINSLKPEDTAVYYCAGRSVGGRYFKGNYWGHGTQVTVSS,high polyreactivity
8,QVQLVESGGGLVQAGGSLRLICAASGSNFVGYAMGWYRQAPGKERELVAAISRTGASTYYADSVKGRFTISRDNAKNTVYLQMNSLKPEDTAVYYCAYYYSIYDYWGQGTQVTVSS,high polyreactivity
9,QVQLVESGGGLVQAGGSLRLSCAASGRTFFIYAMGWYRQAPGKERELVARITGGGRTYYADSVKGRFTISRDNAKNTVYLQMNSLKPEDTAVYYCAKRSYVTYPPYDYWGQGSQVTVSS,high polyreactivity
10,QVQLVESGGGLVQAGGSLRLSCAASGITIYNYAMGWYRQAPGKERELVAAITRSGGSTYYADSVKGRFTISRDNAKNTVYLQMNSLKPEDTAVYYCATGKYWRYDYWGQGTQVTVSS,high polyreactivity
11,QVQLVESGGGLVQAGGSLRLSCAASGFIFSIYVMGWYRQAPGKERELVATISSTGSTNYADSVKGRFTISRDNAKNTVYLQMNSLKPEDTAVYYCAAYRRWWGQGTQVTVSS,high polyreactivity
12,QVQLVESGGGLVQAGGSLRLSCAASGRTFVLNAMGWYRQAPGKERELVAAITLGGGSTYADSVKGRFTISRDNAKNTVYLQMNSLKPEDTAVYYCAADFHYPDFEYWGQGTQVTVSS,low polyreactivity
13,QVQLVESGGGLVQAGGSLRLSCAASGSIFTEYAMGWYRQAPGKERELVAAISWSGATTYYADSVKGRFTISRDNAKNTVYLQMNSLKPEDTAVYYCAARWANRSYEYWGQGTQVTVSS,low polyreactivity
14,QVQLVESGGGLVQAGGSLRLSCAASGSTSGTNAMGWYRQAPGKERELVATISRRGGSTYYADSVKGRFTISRDNAKNTVYLQMNSLKQDYTAVYYCAARTYGYFLYDYWGQGTQVTVSS,high polyreactivity
15,QVQLVESGGGLDQAGGSLRLSCAASGSIFNDNVMGWYRQAPWKERELVAGISRSGTRTYYADSVKGRFTISRDNAKNTVYLQMNSLKPEDTAVYYCAAAYGQARRYNGSQYGSWGQGTQVTVSS,high polyreactivity
16,QDQLVESRGALVQAGGSLRLSCAASGIIFGRNAMGWYRQAPRKERELVAGITRRGARTYYADSVKGRFTISRDNAKNTVYFQMNILKPEDTAVYYCAAVGPYRWYDYWGQGTQVTVSS,high polyreactivity
17,QVQIVESGGGLVQAGGSLRLSCAASGGIFEINVLGWYRQAPGKERELVAAISSRGGSTYYADSVKGRFTISRDNAKNTVYLQMNSLKPEDTAVYYCARRYRPKYGYWGQGTQVTVSS,high polyreactivity
18,QVQLVVSGGGLVQAGGSLRLSCAASGIIFSPYALGWYIQAPGKERELVAAISYSGGSTYYADSVKGRFTISRDNAKNTVYLQMNSLKPEDTAVYYCAVVYSYYLAVMGYWDYDYWGQGTQVTVSS,low polyreactivity
19,QVQLVESGGGLVQAGGSLRLSCAASGNTFGLYAMGWYRQAPGKEREFVADITTDGGTTYYADSVKGRFTISRDNAKNTVYLQMNSLKPEDTAVYYCAKLGTFGQHQYDYWGQGTQVTVSS,low polyreactivity
20,QVQLVESGGGLVQAGGSLRLSCAASGITFSYNAMGWYRQAPGKERELVAAISDIGGSTYYADSVKGRFTISRDNAKITVYLQMNSLKPEDTAVYYCAADEYYQDEYDYWGQGTQVTVSS,low polyreactivity
21,QVQLVESGGGLVQAGGSLRLSCAASGSIFVKYAMGWYRQAPGKERELVAAISRRGGSTNYADSVKGRFTISRDNAKNTVYLQMNSLKPEDTAVYYCNAQTVTSYGGDSWGQGTQVTVSS,high polyreactivity

# Source: the nanobody polyreactivity screen of Harvey et al. (2022)
